Experimental data reported in the nanobody polyreactivity screen of Harvey et al. (2022).

Experiment: yeast display, Sf9 membrane polyspecificity reagent, FACS + sequencing; frameworks hold sequencing errors
How it was run: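 Synthetic nanobody libraries on Saccharomyces cerevisiae BJ5465 were galactose-induced for 36–48 hours, stained 1 hour at 4 °C with 10% biotinylated, detergent-solubilized Sf9 membrane reagent and enriched on streptavidin microbeads. FACS then separated cells into low and high (top ~1%) gates by anti-HA (expression) and streptavidin (reagent binding) fluorescence. Genes were colony-PCR amplified, MiSeq 2 × 250 sequenced and CDR-length filtered. A clone's polyreactivity label is that of its gate of origin.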
In the case of “QVQLVESGGGLLQAGGTLRLSCAASGSTFSKNAMGWYRQAPGKERELVAAISSRGGNTYYADSVKGRFTISRDNAKNTVYLQMNSLKPEDTAVYYCAKALRTYQRTGWYDYWGQGTQVTVSS”, the “polyreactivity (PSR sort gate)” value is reported as “high polyreactivity”. For “QVQLVESGGGLLQAGVSLRLSCAASGRIYSKYAMGRYRQAPGKERELVAAITYSGGSTYYADSVKGRFTISRDNAKNTVYLQMNSLKPEDSAVYYCAAVHCTSYSKWFGYWGQGTQVSVSS”, the “polyreactivity (PSR sort gate)” value was “low polyreactivity”. In the case of “QVQLVESGGGLVEAGGSLRLICAASGSIFYFYGMGWYRQAPGKEREVVAAITYSGGSTYYADSVKGRYTISRDNAKNTVDLQMNSLIPEDTAVYYCNADSVLELYWKMDYWGQGTQVTVSS”, the “polyreactivity (PSR sort gate)” value is reported as “low polyreactivity”. In the case of “QVQLVESGGGLVEAGGSLRLSCAASARTFIGNAMVWYRQAPGKERELVAGIDSDGSTNYADSVNGRFTSSRDNAKNTVYLQMNSLKPEDTAVYYCAAVQGYRFYEYYYWGQGTQVTVSS”, the “polyreactivity (PSR sort gate)” value is reported as “low polyreactivity”. For “QVQLVESGGGLVEAGGSLRLSCAASGFTFYHNAMGWYRPAPGKERELVAAISSGGTTNYADSVKGRFTISRDNAKNTVYLQMNSLTPEDTAVYYCAARGWGPTRAYDYWGQGTQVTVSS”, the “polyreactivity (PSR sort gate)” value was “high polyreactivity”. With “QVQLVESGGGLVEAGGSLRLSCAASGLTFIVKAIGWYRQAPGKEREFVAAIRSGDGNTHYADSLKGRYTISRDNAKNTVYFQMNSLKPVDTAVYYCNAGFPRSYRFDYWGQGTQVTVSS” the “polyreactivity (PSR sort gate)” value was “high polyreactivity”. In the case of “QVQLVESGGGLVEAGGSLRLSCAASGRIFKVYAMGWYRQGPGKERELVAAISRSCGSTYYADSVKGRFTISRDKAKITVSLQMNSLKPEDTAVYYCNAYFVSGHAGGYDYWGQGTQVTVSS”, the “polyreactivity (PSR sort gate)” value is reported as “high polyreactivity”. For “QVQLVESGGGLVEAGGSLRLSCAASGRTFQYYPMGWYRQAPGKERDFVAAITRTGARTYYADSVKGRFTISRDNAKNTVYLQMYSLKPEDTAVYYCAISLTFYSWRDYGYWGQGSQVTVSS”, the “polyreactivity (PSR sort gate)” value was “high polyreactivity”. In the case of “QVQLVESGGGLVEAGGSLRLSCAASGYIFGSYAMGWYRHAPGKERELVASISKSGGSTYYADSVKGRFTISRDNAKNTVYLQMNSLKPEDTAVYYCAAAGIGGGGWGQGTQVTVSS”, the “polyreactivity (PSR sort gate)” value is reported as “low polyreactivity”. In the case of “QVQLVESGGGLVEAGGSLRLSCEASGFNFSRYVMGWYRQAPGKERELVAVISYRGGSTYYADSVKGRFTISRDYAKITVYLQMNSLKPEDTAVYYCNADTIPDGEDRYDYWGQGTQVTVSS”, the “polyreactivity (PSR sort gate)” value is reported as “low polyreactivity”. For “QVQLVESGGGLVEAGGSLRLSGAASGSIFRYYSMGWYRQAPGKERELVAAITYSGGTTYYADSVKGRFTISRDNAKNTVYLQMNSLKPEDTAVYYCAATFQANYFSGYYTVYLSDYRGQGTQVTVSS”, the “polyreactivity (PSR sort gate)” value was “low polyreactivity”. In the case of “QVQLVESGGGLVEAGGTLRLSCAASGSIFPINAMGWYRQAPGKQWELVAAITVSDGRTYYADSVKGRFTISRDTAKNTVYLQMNSLKPEDTAVYYCAKSSHAREYYYWGQGNQVTVSS”, the “polyreactivity (PSR sort gate)” value is reported as “low polyreactivity”. In the case of “QVQLVESGGGLVHAGGSIRLSCSASGRTVGVNMGWYRQSPGKERELVAVISSGDSTNYADSVKGRFTISRDNAKNTFYLQMNSLKQEDTAVYYCNAYGSDRLTLDDYWGQGTQVTVSS”, the “polyreactivity (PSR sort gate)” value is reported as “low polyreactivity”. With “QVQLVESGGGLVHAGGSLLLSCAASGFISSRYAMGWYRQAPGKERELVAAISRGGGSTYYADSVKGRFTISRDNAKNSVYLQMNSLKPEYTAVYYCAAAARGSPQYDYWGQGSQVTVSS” the “polyreactivity (PSR sort gate)” value was “high polyreactivity”. For “QVQLVESGGGLVHAGGSLLLSCSASGSIFTVNAMGWYRQAPGKERELVAAISSGGSTHYADSVKGRFTISRDNAKNTVYLQMISLKPEDTAVYYCAAVYVPYYGYYTRYDYWGQGTQVTVSS”, the “polyreactivity (PSR sort gate)” value was “low polyreactivity”. With “QVQLVESGGGLVHAGGSLRISCAASGRTFSRNAMGWYRQAPGKERELVATISRRGGSTNYADSVKGRFTISRDYAKNTVYLQMNSLKPDDTAVYYCAAGYRVRDDKVYGIVRPMDYWGQGTQVTVSS” the “polyreactivity (PSR sort gate)” value was “high polyreactivity”. With “QVQLVESGGGLVHAGGSLRLRCAASGRTFYFSNMGWYRQAPGKQRELVATIRWSAGSTYYADSVKGRFTISRDNAKNSVYLQMKSLKPEDTAVYYCNGDPYVYSSWQYGYWGQGTQVTVSS” the “polyreactivity (PSR sort gate)” value was “high polyreactivity”. With “QVQLVESGGGLVHAGGSLRLSCAACGNIFKYYTMGWYREAPGKERELVDAITSGGRTNYADSVKGRFTISRDNAKNTVYLKMNSLKPEDTAVYYCAAYDVIYSQGFDYWGQGTQVTVSS” the “polyreactivity (PSR sort gate)” value was “low polyreactivity”. For “QVQLVESGGGLVHAGGSLRLSCAACGRTFGRYPMGSYRQAPGKERELVAAITVGGGSTYYADSVKGRFTISRDYAKNTVYLQMNSLKPEDTAVYYCNALHTYTYRYDYYYWGQGTQVTVSS”, the “polyreactivity (PSR sort gate)” value was “high polyreactivity”. With “QVQLVESGGGLVHAGGSLRLSCAACGSIYKYNAMGWYRQAPGKERELVAAISYSGCSTYYSDSVNGRFTISRDNAKNTVYLQMNSLKPEDTAVYYCAKSPRASQYNMYDYWGQGTKVTVSS” the “polyreactivity (PSR sort gate)” value was “high polyreactivity”. With “QVQLVESGGGLVHAGGSLRLSCAASGFIFGSYTMVWYRTAPGKERELVATITLSDGSTYYADSVNGRFTISRDNANNTVFLQMNSLKPEDTAVYYCNKDKVVVRYDYWGQGTQVTVSS” the “polyreactivity (PSR sort gate)” value was “low polyreactivity”. For “QVQLVESGGGLVHAGGSLRLSCAASGFILRSYGMGWYRQAPGKERELVAAITRGGSTYYADSVKGRFTISRDNAKNTVYLQMNSLKPEDTAVYYCAARTRYYSQQFDYWGQGTQVTVSS”, the “polyreactivity (PSR sort gate)” value was “high polyreactivity”. In the case of “QVQLVESGGGLVHAGGSLRLSCAASGFTFGQYAMGWYRQAPGKERELVAAIRSGGSTNYADSVKGRFTISRDNAKNTVYLQMNSLKPEDTAVYYCAAGYRRGWVTMGYWGQGTQVTVSS”, the “polyreactivity (PSR sort gate)” value is reported as “high polyreactivity”. In the case of “QVQLVESGGGLVHAGGSLRLSCAASGFTFKENAMGWSRPAPGKERELVAAISSTGGSTYYADSVKGRFTISRDNATNNVYLQMHSLNPDDTAVYYCAASTYWYDGDYWGQGTQVTVSS”, the “polyreactivity (PSR sort gate)” value is reported as “high polyreactivity”. In the case of “QVQLVESGGGLVHAGGSLRLSCAASGFTFLYNSMGWYRQAPGKERELVASINSGGSTNYADSVKGRFTISRDNAKNTVYLQMNSLKPEDTAVYYCNAKRHVRKGDYWGQGTQVTVSS”, the “polyreactivity (PSR sort gate)” value is reported as “low polyreactivity”. In the case of “QVQLVESGGGLVHAGGSLRLSCAASGFTFRSYTMGWYRQAHGKERELVAAITSRGTSTYYADSVKGRFTISRDNAKNTVYLQMNSLKPEDTAVYYCAAPIYNGYASWQVYYWGQGTQVTVSS”, the “polyreactivity (PSR sort gate)” value is reported as “high polyreactivity”. With “QVQLVESGGGLVHAGGSLRLSCAASGFTLRKYVMGWYRQAPGKERELVAAITSYASSTYFADSVKGRFTISRDNSKNTVYLQMNSLKPEDSAVYYCAARRYGEPYGYWGQGTQVTVSS” the “polyreactivity (PSR sort gate)” value was “high polyreactivity”. For “QVQLVESGGGLVHAGGSLRLSCAASGGILVFYAMGWYRQAPGKERELVAAINVSGGSTYYADSVKGRYTISRDNAKNTVYLQMNSLKPEDTAVYYCAALGPYLDYGVQYGYWGQGTQVTVSS”, the “polyreactivity (PSR sort gate)” value was “low polyreactivity”. With “QVQLVESGGGLVHAGGSLRLSCAASGGTFGHYTMGWYRQAPGKERELVAAISGSGGTTYYADSVKGRFTISRDNAKNTVYLQMNSLKPEDTAVYYCAAYSGAYRKWLYDYWGQGTQVTVSS” the “polyreactivity (PSR sort gate)” value was “high polyreactivity”. With “QVQLVESGGGLVHAGGSLRLSCAASGITFSDNTMGWYRQAPGKERELVAAISWRGGRTYYADSVKGRFTISRDYAKNTVSLQMNSLKPEDTAVYYCNAVTSSKARSSSYDYWGQGTQVTVSS” the “polyreactivity (PSR sort gate)” value was “high polyreactivity”. With “QVQLVESGGGLVHAGGSLRLSCAASGLIFTNAMGWYRQAPGKEREFVAAINSSGGSTYADSVKGRFTISRDNAKNTVYLQMNSLKPEDTAVYFCAARVIYLYEYWGQGTQVTVSS” the “polyreactivity (PSR sort gate)” value was “low polyreactivity”. In the case of “QVQLVESGGGLVHAGGSLRLSCAASGLISYRYAMGWYRQAPGKERELVAAISWRGGSTYYADSVKGRFTISRDNAKNTVYLQMNSLKPDDTAVYYCNALGLGLFDYWGQGTQVTVSS”, the “polyreactivity (PSR sort gate)” value is reported as “high polyreactivity”. In the case of “QVQLVESGGGLVHAGGSLRLSCAASGNIFVEYAMGWYRQAPGKERELVAAITNSGGRTHYADSVKGRFTISRDNAKNTVYLQMNSLKPEDTAVYYCAAPTKYRSRRYYWGQGTQVTVSS”, the “polyreactivity (PSR sort gate)” value is reported as “high polyreactivity”. In the case of “QVQLVESGGGLVHAGGSLRLSCAASGRIFIANAMGWYRQAPGNERELVAGIRGSGGRTYYADSVKGRFTISRDNAKNTVYLQMNSLKPEDTAVYDCNARTPGRLGRFDYWGQGTQVTVSS”, the “polyreactivity (PSR sort gate)” value is reported as “low polyreactivity”. For “QVQLVESGGGLVHAGGSLRLSCAASGRIFRSYAMGWYRQAPGKERELVAAITSRGGSTYYADYVKGRFTISRDNAKNTVYLQMNILKTEDTAVYYCAADSFRLGVAAWTRYNYWGQGTQVTVSS”, the “polyreactivity (PSR sort gate)” value was “high polyreactivity”. In the case of “QVQLVESGGGLVHAGGSLRLSCAASGRIFVRYAMGWYRQAPGKERELVAAINWRGSSTYYADSVKGRFTISRDNAKNTVYLQMNSLKPEDTAVYYCNTAQRYRVYRYDYWGQGTQVTVSS”, the “polyreactivity (PSR sort gate)” value is reported as “high polyreactivity”. With “QVQLVESGGGLVHAGGSLRLSCAASGRIFYVYAMGWYRQAPGKEREFVASISWSGGSTYYADSVKGRFTISRDNAKNTVYLQMNSLKPEDTAVYYCAARVVRYGYKYYYWGQCTQVTVSS” the “polyreactivity (PSR sort gate)” value was “low polyreactivity”. In the case of “QVQLVESGGGLVHAGGSLRLSCAASGRTFGKYAMGWYRQAPGKERELVAAISSGGTTYYADSVKGRFTISRDNAKNTVYLQMNSLKPEDTAVYYCAADPRYPYNYWGQGTQVTVSS”, the “polyreactivity (PSR sort gate)” value is reported as “low polyreactivity”. In the case of “QVQLVESGGGLVHAGGSLRLSCAASGRTFGWYAMGWYIQAPGKERELVASITHRGGRTYYADSVKGRFTISRDNAKHTVYLQMNSLNPEDTAVYYCAAKTSTGMGYWGQCTQVTVSS”, the “polyreactivity (PSR sort gate)” value is reported as “high polyreactivity”. For “QVQLVESGGGLVHAGGSLRLSCAASGRTFRLYVMGWYRQAPGKERELVASITRGTGTDYADSVKGRFRISRDNAKNTVYLQMNSLKPEDTAVYYCNVKYGQPIYGEFDYWGQGTQVTVSS”, the “polyreactivity (PSR sort gate)” value was “low polyreactivity”. In the case of “QVQLVESGGGLVHAGGSLRLSCAASGRTFRNNAMVWYRQAPGKEREWVAAITSGGSTNYADSVKGRFTISRDNAKNPVYLQMISLKPEDTGVYYCAKDFWYVTGGWSSGMDYWGQGTQVTVSS”, the “polyreactivity (PSR sort gate)” value is reported as “low polyreactivity”. For “QVQLVESGGGLVHAGGSLRLSCAASGRTFTLYAMGWYRQAPGKERELVAAITRTGRTTYADSVKGRFTISRDNAKNTVYLQMNSLKPEDTAVYYCAAEVEYTSASIVYYEYEYWGQGTQVTVSS”, the “polyreactivity (PSR sort gate)” value was “high polyreactivity”. For “QVQLVESGGGLVHAGGSLRLSCAASGRTFVYYAMGWNTQAPGKERELVAAISAGGGSTYYADSEKGRFTISRDNAKITVYFQMNSLNPEDTAVYYCAADGSPEIRDNYWGQGTQVTVSS”, the “polyreactivity (PSR sort gate)” value was “high polyreactivity”.
